The values below come from article PMC10805794.

Assay [1] concerns the target ancestral spike antigen (Sanofi SARS-CoV-2 recombinant prefusion spike trimer, Wuhan Hu-1) (SARS-CoV-2 (Wuhan Hu-1) | bacteriophage T4) (UniProt P0DTC2). Nature of the assay: SEC; Superose-6 column, analytical HPLC; antigens at 3 mg/mL stored at 4 °C for several weeks (cold stored) and an aliquot incubated at 37 °C for one day.
Assay [2] has as its target Beta spike antigen (Sanofi SARS-CoV-2 recombinant prefusion spike trimer, B.1.351 variant) (SARS-CoV-2 (B.1.351, Beta) | bacteriophage T4) (UniProt P0DTC2). The assay is described as above.

Take “ancestral spike antigen (Sanofi SARS-CoV-2 recombinant prefusion spike trimer, Wuhan Hu-1) (from UniProt P0DTC2 14-1213) (complex)”: the stoichiometry N in assay [1] amounted to 3. As for “Beta spike antigen (Sanofi SARS-CoV-2 recombinant prefusion spike trimer, B.1.351 variant) (from UniProt P0DTC2 14-1213) (complex)”, the stoichiometry N in assay [2] amounted to 3.
